Data reported in patent US20250163182A1 (Janssen / Centocor, published 2025).
Substitutions are numbered along the chain they refer to.

T1: ENPP1 on CHOK1 cells (UniProt P22413 1-925, limits assumed)
T1 construct: whole, on cells; also called ectonucleotide pyrophosphatase/phosphodiesterase family member 1; CHO ENPP1 OE
T1 sequence (looked up): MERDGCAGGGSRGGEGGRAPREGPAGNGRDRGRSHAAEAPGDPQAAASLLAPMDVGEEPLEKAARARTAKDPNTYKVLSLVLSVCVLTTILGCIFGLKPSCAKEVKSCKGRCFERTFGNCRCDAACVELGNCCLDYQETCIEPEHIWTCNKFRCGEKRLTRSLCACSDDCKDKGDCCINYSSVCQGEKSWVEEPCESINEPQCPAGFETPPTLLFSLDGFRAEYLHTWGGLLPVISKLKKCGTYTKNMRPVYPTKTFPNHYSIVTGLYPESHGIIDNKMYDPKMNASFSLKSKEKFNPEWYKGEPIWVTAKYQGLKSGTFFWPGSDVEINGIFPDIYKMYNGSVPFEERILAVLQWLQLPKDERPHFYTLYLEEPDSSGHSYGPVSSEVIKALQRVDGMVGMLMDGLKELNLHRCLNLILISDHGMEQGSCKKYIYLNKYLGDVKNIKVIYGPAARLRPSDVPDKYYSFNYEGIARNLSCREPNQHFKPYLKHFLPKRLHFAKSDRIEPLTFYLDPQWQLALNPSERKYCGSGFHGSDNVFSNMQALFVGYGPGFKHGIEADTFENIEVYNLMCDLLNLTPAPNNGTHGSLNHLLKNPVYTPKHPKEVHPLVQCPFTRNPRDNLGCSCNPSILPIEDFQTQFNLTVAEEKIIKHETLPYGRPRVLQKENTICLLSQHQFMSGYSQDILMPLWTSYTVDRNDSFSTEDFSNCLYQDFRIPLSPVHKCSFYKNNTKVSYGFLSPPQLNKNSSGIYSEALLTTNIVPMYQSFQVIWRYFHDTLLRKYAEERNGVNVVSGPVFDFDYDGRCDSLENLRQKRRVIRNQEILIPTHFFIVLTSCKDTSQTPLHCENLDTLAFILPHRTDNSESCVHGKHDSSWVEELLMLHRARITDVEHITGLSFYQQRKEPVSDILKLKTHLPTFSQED

T2: human ENPP3 on cells (human, UniProt O14638 1-875)
T2 construct: whole, on cells; also called ENPP3 on A704, VMRCRCW, HepG2, TUHR4TKB, TUHR10TKB; CHO-K1 ENPP3 OE
T2 sequence (looked up): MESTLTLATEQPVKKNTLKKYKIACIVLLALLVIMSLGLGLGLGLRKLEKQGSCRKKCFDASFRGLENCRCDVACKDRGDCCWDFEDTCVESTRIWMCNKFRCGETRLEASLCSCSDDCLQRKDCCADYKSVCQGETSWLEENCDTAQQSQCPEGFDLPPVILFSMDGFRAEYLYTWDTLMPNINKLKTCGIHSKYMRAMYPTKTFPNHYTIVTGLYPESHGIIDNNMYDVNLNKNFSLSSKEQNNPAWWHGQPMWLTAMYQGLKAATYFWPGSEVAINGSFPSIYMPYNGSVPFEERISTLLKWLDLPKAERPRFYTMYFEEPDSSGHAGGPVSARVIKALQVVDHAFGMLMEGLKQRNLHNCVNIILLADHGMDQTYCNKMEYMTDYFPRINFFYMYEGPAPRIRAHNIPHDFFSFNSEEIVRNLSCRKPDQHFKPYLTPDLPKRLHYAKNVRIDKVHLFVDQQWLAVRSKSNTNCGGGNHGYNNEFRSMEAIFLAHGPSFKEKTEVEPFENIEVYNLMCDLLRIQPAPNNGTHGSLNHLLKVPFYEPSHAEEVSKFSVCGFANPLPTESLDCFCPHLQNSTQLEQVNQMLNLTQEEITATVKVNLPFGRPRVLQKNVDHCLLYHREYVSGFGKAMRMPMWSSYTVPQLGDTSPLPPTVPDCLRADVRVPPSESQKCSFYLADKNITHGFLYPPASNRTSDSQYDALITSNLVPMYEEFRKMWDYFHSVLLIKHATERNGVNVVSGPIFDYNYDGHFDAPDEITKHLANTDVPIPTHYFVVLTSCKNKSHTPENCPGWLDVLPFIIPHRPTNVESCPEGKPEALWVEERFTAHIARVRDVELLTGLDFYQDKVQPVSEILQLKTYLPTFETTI

T3: cynomolgus monkey ENPP3 (cynomolgus monkey, UniProt A0A2K5TKP4 46-874)
T3 construct: also called cyno ENPP3
T3 sequence: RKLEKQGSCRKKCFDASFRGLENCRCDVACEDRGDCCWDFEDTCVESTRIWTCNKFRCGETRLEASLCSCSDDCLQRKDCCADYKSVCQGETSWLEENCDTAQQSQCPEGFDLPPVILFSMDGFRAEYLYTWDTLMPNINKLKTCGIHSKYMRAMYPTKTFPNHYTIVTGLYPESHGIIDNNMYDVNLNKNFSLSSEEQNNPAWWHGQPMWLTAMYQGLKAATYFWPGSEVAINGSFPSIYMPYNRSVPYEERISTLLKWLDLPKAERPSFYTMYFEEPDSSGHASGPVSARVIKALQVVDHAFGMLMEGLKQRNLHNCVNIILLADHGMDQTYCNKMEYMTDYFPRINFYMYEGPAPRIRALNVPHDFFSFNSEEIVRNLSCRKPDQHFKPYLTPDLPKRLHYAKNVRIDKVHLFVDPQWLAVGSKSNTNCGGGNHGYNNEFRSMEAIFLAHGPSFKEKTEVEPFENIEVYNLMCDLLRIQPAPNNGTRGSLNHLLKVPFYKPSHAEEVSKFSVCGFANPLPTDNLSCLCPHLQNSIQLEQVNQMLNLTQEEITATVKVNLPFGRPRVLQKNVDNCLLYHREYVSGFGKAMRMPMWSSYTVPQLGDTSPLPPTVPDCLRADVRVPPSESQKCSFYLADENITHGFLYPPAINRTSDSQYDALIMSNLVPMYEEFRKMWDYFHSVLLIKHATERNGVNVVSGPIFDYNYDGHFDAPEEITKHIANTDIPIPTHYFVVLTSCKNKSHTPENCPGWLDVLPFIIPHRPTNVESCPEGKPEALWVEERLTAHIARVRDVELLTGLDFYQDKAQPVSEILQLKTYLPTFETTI

T4: human ENPP3 (human, UniProt O14638 46-875, limits assumed)
T4 construct: neither the construct nor the method is stated; also called ectonucleotide pyrophosphatase/phosphodiesterase family member 3
T4 sequence (looked up): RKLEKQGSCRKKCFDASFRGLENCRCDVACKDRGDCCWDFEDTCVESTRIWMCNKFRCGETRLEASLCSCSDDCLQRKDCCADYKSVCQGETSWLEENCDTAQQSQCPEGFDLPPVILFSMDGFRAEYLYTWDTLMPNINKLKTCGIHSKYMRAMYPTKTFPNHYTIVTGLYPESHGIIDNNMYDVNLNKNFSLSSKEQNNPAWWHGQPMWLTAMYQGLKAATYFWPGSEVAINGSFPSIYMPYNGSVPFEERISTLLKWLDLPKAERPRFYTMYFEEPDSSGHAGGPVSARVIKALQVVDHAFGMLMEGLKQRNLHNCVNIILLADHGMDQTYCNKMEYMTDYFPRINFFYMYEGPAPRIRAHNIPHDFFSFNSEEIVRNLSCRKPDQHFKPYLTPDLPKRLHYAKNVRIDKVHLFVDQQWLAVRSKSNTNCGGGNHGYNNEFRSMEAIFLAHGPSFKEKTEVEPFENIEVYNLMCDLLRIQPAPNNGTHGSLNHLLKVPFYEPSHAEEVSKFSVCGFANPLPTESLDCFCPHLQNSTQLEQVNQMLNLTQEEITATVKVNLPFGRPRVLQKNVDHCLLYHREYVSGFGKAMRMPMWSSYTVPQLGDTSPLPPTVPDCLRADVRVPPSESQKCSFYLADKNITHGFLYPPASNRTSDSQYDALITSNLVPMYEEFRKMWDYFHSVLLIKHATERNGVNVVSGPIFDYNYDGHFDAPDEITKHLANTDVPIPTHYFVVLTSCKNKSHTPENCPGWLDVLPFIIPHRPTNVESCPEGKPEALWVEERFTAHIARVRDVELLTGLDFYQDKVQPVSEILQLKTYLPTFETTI

B1: NPP3B232 (bispecific antibody, IgG1)
VH: QVQLQESGPGLVKPSETLSLTCTVSGGSISNYYWSWIRQPAGKGLEWIGRIYASGSTNYNPSLKSRVTMSVDTSKNQFSLRLRSVTATDTAVYYCAREGYSSTLYDNAFDFWGQGTMVTVSS
VL: DIQMTQSPSSVSASVGGRVTITCRASQGISTWLAWYQQKPGKAPKLLIYAASSLQSGVPSRFSGSGSGTDFTLTISSLQPEDFATYYCQQANSFPLTFGGGTKVEIK
scFv: EIVLTQSPATLSASPGERVTLSCSASSSVSYMNWYQQKPGQAPRRWIYDSSKLASGVPARFSGSGSGRDYTLTISSLEPEDFAVYYCQQWSRNPPTFGGGTKVEIKGGSEGKSSGSGSESKSTGGSQVQLVQSGAEVKKPGSSVKVSCKASGYTFTRSTMHWVKQAPGQGLEWIGYINPSSAYTNYNQKFQGRVTLTADKSTSTAYMELSSLRSEDTAVYYCASPQVHYDYAGFPYWGQGTLVTVSS
notes: Fab-IgG1 (hole) plus scFv-Fc in VL-linker-VH-Fc orientation
B2: NPP3B239 (bispecific antibody, IgG1)
VH: EVQLVESGGGLVKPGGSLRLSCAASGFIFSDYSMNWVRQAPGKGLEWVSSISSGSSYIYYADSLKGRFTISRDNAKNSLYLQMSSLRAEDTAVYYCVRGLDYFDYWGQGALVTVSS
VL: DIQMTQSPSFLSASVGDRVTITCRASQDISNYLAWYQQKPGRAPKLLIYVASTLQSGVPSRFSGSGSGTEFTLTISSLQPEDFATYYCQQLNSYPRTFGQGTKVEIK
scFv: B1 scFv
notes: Fab-IgG1 (hole) plus scFv-Fc in VL-linker-VH-Fc orientation; also called NPP3B239.003
B3: NPP3B61 (antibody, V domains shown)
VH: QVQLQESGPGLVRPSETLSLTCTVSGGSISSYYWSWIRQPAGKGLEWIGRIYTTGRIYTSGYTNYNPSLKSRVTMSIDTSKIQFSLRLNSVTAADTAVYWCARGGELFTDGFDIWGQGTMVTVSS
VL: EIVMTQSPGTLSLSPGERATLSCRASQSVISTYLAWYQQNPGQAPRLLIYGASSRATGIPDRFSGSGSGTDFTLTISRLEPEDFAVYYCQQYDTSPITFGQGTRLEIK
notes: mAb from Ablexis Kappa mice
B4: NPP3B62 (antibody, V domains shown)
VH: B3 VH
VL: B3 VL with A85V
notes: mAb from Ablexis Kappa mice
B5: NPP3B101 (antibody, V domains shown)
VH: QVQLQESGPGLVKTSETLSLTCTVSGGSISSHYWSWIRQPPGKGLEWIGNIFYSGSTNYNPSLKSRVTMSVDTSKNHFSLKLISVTTADTAIYYCARHDHVWFDPWGQGTLVTVSS
VL: EIVLTQSPGTLSVFPGERATLSCRASQSVSRNLVWYQQKPGQAPRLLIYGASTRATGIPDRFSGSGSGTEFTLTISSLQSEDFAVYYCQQYNNWPPWTFGQGTKVEIK
notes: mAb from Ablexis Kappa mice

Legend:
ENPP1 on CHOK1 cells = target: T1, ENPP1 on CHOK1 cells; assay: flow cytometry on CHO cells overexpressing ENPP1
ENPP2 on CHOK1 cells = ENPP2 on CHOK1 cells (UniProt Q13822 36-863); assay: flow cytometry on CHO cells overexpressing ENPP2
human ENPP3 on cells = target: T2, human ENPP3 on cells; assay: flow cytometry on CHO cells overexpressing ENPP3
Procedure: To evaluate the specificity of binders to ENPP3 compared to other ENPP family members, cell binding was assessed on CHOK1 cells overexpressing ENPP1, ENPP2, or ENPP3 (FIG. 9).

cynomolgus monkey ENPP3 = target: T3, cynomolgus monkey ENPP3; assay: binding affinity to cyno ENPP3; method not stated
human ENPP3 = target: T4, human ENPP3; assay: binding affinity to human ENPP3; method not stated

Binder | binding result (ENPP1 on CHOK1 cells) | binding result (ENPP2 on CHOK1 cells) | EC50 (read off the curve) (human ENPP3 on cells) [µg/mL] | Kd (cynomolgus monkey ENPP3) [nM] | Kd (human ENPP3) [nM]
B1 | no binding (tested: Log(ug/mL) about 1.1 (about 12 ug/mL)) | no binding (tested: Log(ug/mL) about 1.1 (about 12 ug/mL)) | ~0.5 |  | 
B2 | no binding (tested: Log(ug/mL) about 1.1 (about 12 ug/mL)) | no binding (tested: Log(ug/mL) about 1.1 (about 12 ug/mL)) | ~1 |  | 
B3 |  |  |  | 109 | 0.443
B4 |  |  |  | 12 | 0.258
B5 |  |  |  | 9.58 | 0.193
